The binders below were run against T1, PTK7 (His tag) (UniProt Q13308 31-704) (assay: SPR).
T1 sequence: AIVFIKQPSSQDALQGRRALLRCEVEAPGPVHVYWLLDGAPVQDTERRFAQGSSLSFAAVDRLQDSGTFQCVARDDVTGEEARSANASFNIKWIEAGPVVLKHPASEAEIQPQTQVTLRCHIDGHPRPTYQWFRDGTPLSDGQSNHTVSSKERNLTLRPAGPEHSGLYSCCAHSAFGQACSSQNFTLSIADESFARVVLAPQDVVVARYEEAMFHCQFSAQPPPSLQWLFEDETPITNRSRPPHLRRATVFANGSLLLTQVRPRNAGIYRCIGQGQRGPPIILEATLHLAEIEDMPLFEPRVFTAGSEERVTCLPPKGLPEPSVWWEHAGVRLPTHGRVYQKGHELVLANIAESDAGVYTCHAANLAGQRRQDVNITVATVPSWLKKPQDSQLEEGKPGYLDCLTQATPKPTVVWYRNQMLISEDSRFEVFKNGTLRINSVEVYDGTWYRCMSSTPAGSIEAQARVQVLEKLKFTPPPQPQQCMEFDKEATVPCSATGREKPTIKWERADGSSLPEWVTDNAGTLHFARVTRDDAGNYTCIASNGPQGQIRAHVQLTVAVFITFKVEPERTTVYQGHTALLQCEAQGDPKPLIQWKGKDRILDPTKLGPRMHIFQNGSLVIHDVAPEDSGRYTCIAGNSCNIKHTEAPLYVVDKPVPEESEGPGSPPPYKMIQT

Binding result, no binding:
ATCTAACTTCTGAGCCGCCGGGAAAATACTGTACGGTTAGA (structured_DNA) [G9T·C13A], ATCTAACTCCTGGGCCGCCGGGAAAATACTGTACGGTTAGA (structured_DNA) [G9C·C13G], ATCTAACTGATTCGCCGCCGGGAAAATACTGTACGGTTAGA (structured_DNA) [C10A·G12T], ATCTAACTGTTACGCCGCCGGGAAAATACTGTACGGTTAGA (structured_DNA) [C10T·G12A], ATCTAACTGGTCCGCCGCCGGGAAAATACTGTACGGTTAGA (structured_DNA) [C10G·G12C], ATCTAACTACTGTGCCGCCGGGAAAATACTGTACGGTTAGA (structured_DNA) [G9A·C13T]

From paper PMC11260122
